# Several values for one entry are separate records, joined by “and”; a condition that tells them apart may be missing. Equal values may be shown once.
# T1: Flag-PTHR1-YFP (parathyroid hormone receptor 1) expressed in transfected HEK293T cells (human, UniProt Q03431 27-593)
# T1 sequence (looked up): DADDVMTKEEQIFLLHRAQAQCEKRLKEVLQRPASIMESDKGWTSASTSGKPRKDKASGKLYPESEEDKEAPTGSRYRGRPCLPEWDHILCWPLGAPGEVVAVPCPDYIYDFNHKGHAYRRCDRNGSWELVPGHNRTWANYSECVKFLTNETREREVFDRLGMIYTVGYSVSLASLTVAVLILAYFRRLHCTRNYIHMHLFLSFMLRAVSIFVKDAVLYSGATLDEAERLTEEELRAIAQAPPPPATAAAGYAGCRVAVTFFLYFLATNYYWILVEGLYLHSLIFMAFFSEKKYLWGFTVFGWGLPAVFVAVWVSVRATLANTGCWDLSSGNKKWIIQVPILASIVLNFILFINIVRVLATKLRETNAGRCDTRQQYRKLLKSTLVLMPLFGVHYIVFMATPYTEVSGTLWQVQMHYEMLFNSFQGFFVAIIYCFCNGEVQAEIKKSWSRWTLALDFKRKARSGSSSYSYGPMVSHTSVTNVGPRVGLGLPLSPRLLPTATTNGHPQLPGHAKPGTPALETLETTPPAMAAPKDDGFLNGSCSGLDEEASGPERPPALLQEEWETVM
# T2: PTHR1 on CHO-K1/Ga15/PTHR1 cells (UniProt Q03431 27-593, limits assumed)
# T2 sequence (looked up): T1 sequence (looked up)
# Target: T1, Flag-PTHR1-YFP (parathyroid hormone …)
# Test: cell-based or functional assay
Binder,"arrestin 1, plate 17: -log10EC50","arrestin 2, plate 18: -log10EC50","arrestin 1, plate 9: -log10EC50","arrestin 1, plate 9: Emax","arrestin 1, plate 19: -log10EC50","arrestin 2, plate 10: -log10EC50","arrestin 2, plate 20: -log10EC50","arrestin 1, plate 11: -log10EC50","arrestin 1, plate 11: Emax","arrestin 1, plate 21: -log10EC50"
AVAEIQLMHQRAKWKLDLELAVSLRKILEDVY [R2-27],-7.92 -log10EC50 and -8.02 -log10EC50,-7.65 -log10EC50 and -8.08 -log10EC50,,,,,,,,
AVAEIQLMHQRAKWKLELELKEKIRKLLEDLL [R2-29],-8.15 -log10EC50 and -8.77 -log10EC50,-8.39 -log10EC50 and -8.46 -log10EC50,,,,,,,,
AVAEIQLMHQRAKWLEELKLKDDLRKILEDVY [R2-30],-7.88 -log10EC50 and -8.28 -log10EC50,-7.92 -log10EC50 and -8.3 -log10EC50,,,,,,,,
AVAEIQLMHQRAKWGLDLELRARLREILRDVY [R2-31],-8 -log10EC50 and -8.53 -log10EC50,-8.12 -log10EC50 and -8.18 -log10EC50,,,,,,,,
AVAEIQLMHQRAKWLNELRLKEEMRKILEDVY [R2-33],,,-8.23 -log10EC50,7.38,-7.99 -log10EC50 and -8.4 -log10EC50,-8.31 -log10EC50,-8.09 -log10EC50 and -8.12 -log10EC50,,,
AVAEIQLMHQRAKWRLEIELLKKLKEILKDVY [R2-34],,,-8.56 -log10EC50,7.29,-8.18 -log10EC50 and -8.48 -log10EC50,,-8.09 -log10EC50 and -8.34 -log10EC50,,,
AVAEIQLMHQRAKWGVELQLKVDLRRILEDVY [R2-35],,,-3.53 -log10EC50,16.9,-6.57 -log10EC50 and -7.44 -log10EC50,,-7.67 -log10EC50 and -7.82 -log10EC50,,,
AVAEIQLMHQRAKWKLELELKAFLDQILKDVL [R2-36],,,-8.83 -log10EC50,7.4,-8.33 -log10EC50 and -8.54 -log10EC50,,-8.27 -log10EC50 and -8.6 -log10EC50,,,
AVAEIQLMHQRAKWEIQEIGIKITLELLKEYI [R2-37],,,-5.08 -log10EC50,19.4,-3.6 -log10EC50 and -6.48 -log10EC50,,-6.3 -log10EC50 and -6.41 -log10EC50,,,
AVAEIQLMHQRAKWELQEIGIKITLDLLEAYL [R2-39],,,,,,,,2.64 -log10EC50,15.4,-6.11 -log10EC50 and -6.23 -log10EC50
AVAEIQLMHQRAKWAIQEIGIKITRELLERYL [R2-42],,,,,,,,-7.98 -log10EC50,7.87,-4.99 -log10EC50 and -7.96 -log10EC50
SVMMIQVMHDLAKIRAEYELREMLLRLLEEIF [R2-8],,,-8.43 -log10EC50,6.29,,-9.46 -log10EC50,,,,
AVAEIQLMHQRAKWGLELELKEKLRKILEDVY [R2-26],-7.89 -log10EC50 and -7.57 -log10EC50,-7.79 -log10EC50 and -7.9 -log10EC50,,,,,,,,
AVAEIQLMHQRAKWGLDLELAVKLQEILKDVL [R2-28],-15 -log10EC50,-6.1 -log10EC50,,,,,,,,
AVAEIQLMHQRAKWELLEELLKILLELLKEYI [R2-38],,,,,,,,,,-10.7 -log10EC50
AVAEIQLMHQRAKWDLLIELVKLLHELLKEYI [R2-40],,,,,,,,-6.24 -log10EC50,14.7,-5.44 -log10EC50
AVAEIQLMHQRAKWEIQEIGIKITLDLLQTLK [R2-41],,,,,,,,,,-8.42 -log10EC50

# Same assay, conditions: not given
Binder,"arrestin 2, plate 22: -log10EC50","arrestin 1, plate 13: -log10EC50","arrestin 1, plate 13: Emax","arrestin 1, plate 23: -log10EC50","arrestin 2, plate 24: -log10EC50","arrestin 1, plate 1: -log10EC50","arrestin 2, plate 2: -log10EC50","arrestin 1, plate 5: -log10EC50","arrestin 1, plate 25: -log10EC50","arrestin 1, plate 25: Emax"
AVAEIQLMHQRAKWELQEIGIKITLDLLEAYL [R2-39],-6.95 -log10EC50 and -6.4 -log10EC50,,,,,,,,,
AVAEIQLMHQRAKWAIQEIGIKITRELLERYL [R2-42],-7.63 -log10EC50 and -8.09 -log10EC50,,,,,,,,,
AVAEIQLMHQRAKWELQEIGIAITLRLLARYI [R2-43],,-8.31 -log10EC50,7.23,-6.3 -log10EC50 and -8.03 -log10EC50,-6.24 -log10EC50 and -7.91 -log10EC50,,,,,
AVAEIQLMHQRAKWSLREELEKLLKELLKEYI [R2-44],,-8.54 -log10EC50,7.41,-7.82 -log10EC50 and -8.55 -log10EC50,-7.99 -log10EC50 and -5.45 -log10EC50,,,,,
AVAEIQLMHQRAKWGLEIELLKLLLSLLKEYI [R2-45],,-6.32 -log10EC50,20.4,-6.33 -log10EC50 and -6.27 -log10EC50,-6.47 -log10EC50 and -6.59 -log10EC50,,,,,
AVAEIQLMHQRAKWSILEELLKILTALLDEYI [R2-46],,-6.25 -log10EC50,17.3,-6.35 -log10EC50 and -6.4 -log10EC50,-6.26 -log10EC50 and -6.27 -log10EC50,,,,,
AVAEIQLMHQRAKWDVLIELAKLLAELLRRYH [R2-47],,-5.84 -log10EC50,15.7,-6.19 -log10EC50 and -5.44 -log10EC50,-5.46 -log10EC50 and -5.86 -log10EC50,,,,,
AVAEIQLMHQRAKWIQDARRRAFLHKLIAEIH [LA-PM-FL (R1-81)],,,,,,-8.58 -log10EC50 and -8.76 -log10EC50 and -8.45 -log10EC50,-8.52 -log10EC50 and -8.51 -log10EC50 and -8.44 -log10EC50,,,
AVAEIQLMHQRAKWELEFELFREFLKLLVDFF [I3 (R1-97)],,,,,,,,-5.38 -log10EC50 and -8.1 -log10EC50 and -6.02 -log10EC50,-11.5 -log10EC50,10.3
AVAEIQLMHQRAKWELLEELLKILLELLKEYI [R2-38],-14 -log10EC50,,,,,,,,,
AVAEIQLMHQRAKWDLLIELVKLLHELLKEYI [R2-40],-6.07 -log10EC50,,,,,,,,,
AVAEIQLMHQRAKWEIQEIGIKITLDLLQTLK [R2-41],-6.03 -log10EC50,,,,,,,,,
AVAEIQLMHQRAKWKILEELLKILIDLLKQYI [R2-48],,-5.72 -log10EC50,15.1,-15.4 -log10EC50,-10.7 -log10EC50,,,,,
GVAMLQIMHDLAKIKQELELKDSMKKILEDVL [R2-50],,,,,,,,,-13.8 -log10EC50,6.47
GIAVITLMVLRALLELQEIGRKITLELLKEYI [R2-51],,,,,,,,,-4.53 -log10EC50,12.5
GIAVITLMLLRAYLELLEELVKILHELLRRYH [R2-52],,,,,,,,,-9.83 -log10EC50,6.37

# Same assay, conditions: not given
Binder,"arrestin 2, plate 6: -log10EC50","arrestin 2, plate 26: -log10EC50","arrestin 2, plate 26: Emax","arrestin 1, plate 7: -log10EC50","arrestin 2, plate 8: -log10EC50","arrestin 1, plate 15: -log10EC50","arrestin 2, plate 16: -log10EC50","arrestin 1, plate 17: Emax","arrestin 2, plate 18: Emax","arrestin 1, plate 21: Emax"
AVAEIQLMHQRAKWELEFELFREFLKLLVDFF [I3 (R1-97)],-6.2 -log10EC50 and -5.16 -log10EC50 and -6.19 -log10EC50,-6.36 -log10EC50,21.5,,,,,,,
AVAEIQLMHQRAKWELEYELFEMFLKLLEEIF [I1 (R1-100)],,,,-6.22 -log10EC50 (2×) and -6.24 -log10EC50,-5.41 -log10EC50 and -7.67 -log10EC50 and -6.27 -log10EC50,,,,,
AVAEIQLMHQRAKWKLELELKVKLLEILKDVY [R2-25],,,,,,-8.27 -log10EC50 and -8.59 -log10EC50,-8.37 -log10EC50 and -8.76 -log10EC50,,,
GVAMIQIMHDIAKIRAEYELREMLLRLLEEIF [R2-2],,,,-14 -log10EC50 and -12.2 -log10EC50,5.1 -log10EC50 and -14.8 -log10EC50,,,,,
AVAEIQLMHQRAKWGLDLELAVKLQEILKDVL [R2-28],,,,,,,,6.35,18.5,
AVAEIQLMHQRAKWELLEELLKILLELLKEYI [R2-38],,,,,,,,,,6.36
AVAEIQLMHQRAKWDLLIELVKLLHELLKEYI [R2-40],,,,,,,,,,11.4
AVAEIQLMHQRAKWEIQEIGIKITLDLLQTLK [R2-41],,,,,,,,,,6.44
GVAMLQIMHDLAKIKQELELKDSMKKILEDVL [R2-50],,-13.9 -log10EC50,6.62,,,-5.92 -log10EC50,,,,
GIAVITLMVLRALLELQEIGRKITLELLKEYI [R2-51],,-13.8 -log10EC50,6.47,,,,,,,
GIAVITLMLLRAYLELLEELVKILHELLRRYH [R2-52],,,6.48,,,,,,,
"GVAELQLMHDLAKIRAEYELREMLLRLLEEIF [R2-1, listing 1 of 2 here]",,,,-15 -log10EC50,-9.21 -log10EC50,,,,,
GIAVITLMDLRAYLRAEYELREMLLRLLEEIF [R2-13],,,,,,-8.79 -log10EC50,-14 -log10EC50,,,

# Same assay, conditions: not given
Binder,"arrestin 2, plate 22: Emax","arrestin 1, plate 23: Emax","arrestin 2, plate 24: Emax","arrestin 1, plate 15: Emax","arrestin 1, plate 7: Emax","arrestin 2, plate 8: Emax","arrestin 2, plate 16: Emax"
AVAEIQLMHQRAKWELLEELLKILLELLKEYI [R2-38],6.45,,,,,,
AVAEIQLMHQRAKWDLLIELVKLLHELLKEYI [R2-40],20.9,,,,,,
AVAEIQLMHQRAKWEIQEIGIKITLDLLQTLK [R2-41],23.7,,,,,,
AVAEIQLMHQRAKWKILEELLKILIDLLKQYI [R2-48],,6.53,6.67,,,,
GVAMLQIMHDLAKIKQELELKDSMKKILEDVL [R2-50],,,,32.9,,,
"GVAELQLMHDLAKIRAEYELREMLLRLLEEIF [R2-1, listing 1 of 2 here]",,,,,6.35,6.41,
GIAVITLMDLRAYLRAEYELREMLLRLLEEIF [R2-13],,,,6.38,,,6.59

# Target: T2, PTHR1 on CHO-K1/Ga15/PTHR1 cells
# Test: cell-based or functional assay
Binder,cAMP accumulation (HTRF): -log10EC50,cAMP accumulation (HTRF): Emax
"GVAELQLMHDLAKIRAEYELREMLLRLLEEIF [R2-1, listing 2 of 2 here]",-7.02 -log10EC50 (as headed),102%
